Laboratory results as given in US7976843B2, “Method for screening peptides for use in immunotherapy” (Institut National de la Santa et de la Recherche Medicale …, priority 2000, dated 2011).

Molecular target: HLA A2.1 molecule (Homo sapiens, UniProt P04439, D140Y/D185E/D98H/E176V/E277Q/G131W/G231S/I119V/I121R/I166T/I218V/L300P/L318F/N151K/N90K/P208A/P217A/Q86G/Q94H/R138H/R169H/T345S)
Test: Stability of the peptide/HLA A2.1 complex (DC50) on T2 cells, flow cytometry
Format: binding
Conditions: […]; arrow in neighbouring cell gives direction
Protocol: For each incubation time, the cells are then labeled, as indicated above, with the BB7.2 antibody, and analyzed by flow cytometry in order to evaluate the amount of peptide/HLA A2.1 complex present at their surface. […] The DC50 (dissociation complex: DC) is defined as being the time required for the loss of 50% of the HLA A2.1/peptide complexes stabilized at t=0.

In the case of GILGPVFTL [Flu M58, reference compound], the “DC50 Y1-DC50 WT” value is reported as “=0 hours”.
